Reference: patent US20160272683A1 (Novo Nordisk, published 2016)
Numbered stars: 1 amine (or outer) side, 2 acyl side, 3 side chain; on linkers, the order of the positions; unused ones are H or OH. Side chains are listed from the residue outwards. Ends that are not written are not given here. * marks the point of attachment. C20 diacid = O=C(O)CCCCCCCCCCCCCCCCCCC(=O)*; γGlu = O=C(O)[C@H](CCC(=O)[*:2])N[*:1]

T1: human amylin receptor (human calcitonin receptor + human RAMP3) (human) (UniProt P30988)
T1 sequence (looked up) 1: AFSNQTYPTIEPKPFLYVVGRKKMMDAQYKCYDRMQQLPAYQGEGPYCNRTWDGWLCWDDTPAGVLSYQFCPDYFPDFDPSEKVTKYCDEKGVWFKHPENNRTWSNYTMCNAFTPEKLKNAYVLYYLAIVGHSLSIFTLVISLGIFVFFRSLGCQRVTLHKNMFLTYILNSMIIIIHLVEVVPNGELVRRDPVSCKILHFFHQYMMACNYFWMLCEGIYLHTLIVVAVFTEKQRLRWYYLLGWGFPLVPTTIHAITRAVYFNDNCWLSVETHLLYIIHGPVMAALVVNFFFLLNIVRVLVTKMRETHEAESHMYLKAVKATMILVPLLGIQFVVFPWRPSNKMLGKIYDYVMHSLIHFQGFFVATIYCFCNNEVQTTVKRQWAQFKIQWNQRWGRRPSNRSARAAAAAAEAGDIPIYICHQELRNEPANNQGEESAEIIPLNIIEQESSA
T1 sequence (looked up) 2: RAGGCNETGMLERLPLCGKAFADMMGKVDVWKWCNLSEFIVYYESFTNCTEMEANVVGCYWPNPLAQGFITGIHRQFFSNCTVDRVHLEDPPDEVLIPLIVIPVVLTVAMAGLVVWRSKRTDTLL

B1: [N-terminal(C20 diacid), des1, 4G, 15Q, 21Q, 23Y, 30S, 31G, 32T, 33Y]mimylin (peptide)
peptide: {C20 diacid}-ASGLSTAALGRLSQELHELQTYPRTETGSGTY-NH2
SMILES: CC(C)C[C@H](NC(=O)CNC(=O)[C@H](CO)NC(=O)[C@H](C)NC(=O)CCCCCCCCCCCCCCCCCCC(=O)O)C(=O)N[C@@H](CO)C(=O)N[C@H](C(=O)N[C@@H](C)C(=O)N[C@@H](C)C(=O)N[C@@H](CC(C)C)C(=O)NCC(=O)N[C@@H](CCCNC(=N)N)C(=O)N[C@@H](CC(C)C)C(=O)N[C@@H](CO)C(=O)N[C@@H](CCC(N)=O)C(=O)N[C@@H](CCC(=O)O)C(=O)N[C@@H](CC(C)C)C(=O)N[C@@H](Cc1c[nH]cn1)C(=O)N[C@@H](CCC(=O)O)C(=O)N[C@@H](CC(C)C)C(=O)N[C@@H](CCC(N)=O)C(=O)N[C@H](C(=O)N[C@@H](Cc1ccc(O)cc1)C(=O)N1CCC[C@H]1C(=O)N[C@@H](CCCNC(=N)N)C(=O)N[C@H](C(=O)N[C@@H](CCC(=O)O)C(=O)N[C@H](C(=O)NCC(=O)N[C@@H](CO)C(=O)NCC(=O)N[C@H](C(=O)N[C@@H](Cc1ccc(O)cc1)C(N)=O)[C@@H](C)O)[C@@H](C)O)[C@@H](C)O)[C@@H](C)O)[C@@H](C)O
B2: [N-terminal(C20 diacid-gGlu), 4Q, 9V, 15Q, 21Q, 23Y, 27G, 30S, 31G, 32T, 33Y]mimylin (peptide)
peptide: {C20 diacid-γGlu}-EASQLSTAVLGRLSQELHELQTYPRTGTGSGTY-NH2
SMILES: CC(C)C[C@H](NC(=O)[C@H](CCCNC(=N)N)NC(=O)CNC(=O)[C@H](CC(C)C)NC(=O)[C@@H](NC(=O)[C@H](C)NC(=O)[C@@H](NC(=O)[C@H](CO)NC(=O)[C@H](CC(C)C)NC(=O)[C@H](CCC(N)=O)NC(=O)[C@H](CO)NC(=O)[C@H](C)NC(=O)[C@H](CCC(=O)O)NC(=O)CC[C@H](NC(=O)CCCCCCCCCCCCCCCCCCC(=O)O)C(=O)O)[C@@H](C)O)C(C)C)C(=O)N[C@@H](CO)C(=O)N[C@@H](CCC(N)=O)C(=O)N[C@@H](CCC(=O)O)C(=O)N[C@@H](CC(C)C)C(=O)N[C@@H](Cc1c[nH]cn1)C(=O)N[C@@H](CCC(=O)O)C(=O)N[C@@H](CC(C)C)C(=O)N[C@@H](CCC(N)=O)C(=O)N[C@H](C(=O)N[C@@H](Cc1ccc(O)cc1)C(=O)N1CCC[C@H]1C(=O)N[C@@H](CCCNC(=N)N)C(=O)N[C@H](C(=O)NCC(=O)N[C@H](C(=O)NCC(=O)N[C@@H](CO)C(=O)NCC(=O)N[C@H](C(=O)N[C@@H](Cc1ccc(O)cc1)C(N)=O)[C@@H](C)O)[C@@H](C)O)[C@@H](C)O)[C@@H](C)O
B3: [des1, 4G, 15Q, 21Q, 23Y, 30S, 31K(C20 diacid-gGlu), 32T, 33Y]mimylin (peptide)
peptide: ASGLSTAALGRLSQELHELQTYPRTETGSK([γGlu-C20 diacid])TY-NH2
modifications: N-terminus assumed
SMILES: CC(C)C[C@H](NC(=O)CNC(=O)[C@H](CO)NC(=O)[C@H](C)N)C(=O)N[C@@H](CO)C(=O)N[C@H](C(=O)N[C@@H](C)C(=O)N[C@@H](C)C(=O)N[C@@H](CC(C)C)C(=O)NCC(=O)N[C@@H](CCCNC(=N)N)C(=O)N[C@@H](CC(C)C)C(=O)N[C@@H](CO)C(=O)N[C@@H](CCC(N)=O)C(=O)N[C@@H](CCC(=O)O)C(=O)N[C@@H](CC(C)C)C(=O)N[C@@H](Cc1c[nH]cn1)C(=O)N[C@@H](CCC(=O)O)C(=O)N[C@@H](CC(C)C)C(=O)N[C@@H](CCC(N)=O)C(=O)N[C@H](C(=O)N[C@@H](Cc1ccc(O)cc1)C(=O)N1CCC[C@H]1C(=O)N[C@@H](CCCNC(=N)N)C(=O)N[C@H](C(=O)N[C@@H](CCC(=O)O)C(=O)N[C@H](C(=O)NCC(=O)N[C@@H](CO)C(=O)N[C@@H](CCCCNC(=O)CC[C@H](NC(=O)CCCCCCCCCCCCCCCCCCC(=O)O)C(=O)O)C(=O)N[C@H](C(=O)N[C@@H](Cc1ccc(O)cc1)C(N)=O)[C@@H](C)O)[C@@H](C)O)[C@@H](C)O)[C@@H](C)O)[C@@H](C)O
B4: [N-terminal(C20 diacid-gGlu), des1, 4G, 15T, 21E, 23Y, 30S, 31G, 32T, 33Y]mimylin (peptide)
peptide: {C20 diacid-γGlu}-ASGLSTAALGRLSTELHELETYPRTETGSGTY-NH2
SMILES: CC(C)C[C@H](NC(=O)CNC(=O)[C@H](CO)NC(=O)[C@H](C)NC(=O)CC[C@H](NC(=O)CCCCCCCCCCCCCCCCCCC(=O)O)C(=O)O)C(=O)N[C@@H](CO)C(=O)N[C@H](C(=O)N[C@@H](C)C(=O)N[C@@H](C)C(=O)N[C@@H](CC(C)C)C(=O)NCC(=O)N[C@@H](CCCNC(=N)N)C(=O)N[C@@H](CC(C)C)C(=O)N[C@@H](CO)C(=O)N[C@H](C(=O)N[C@@H](CCC(=O)O)C(=O)N[C@@H](CC(C)C)C(=O)N[C@@H](Cc1c[nH]cn1)C(=O)N[C@@H](CCC(=O)O)C(=O)N[C@@H](CC(C)C)C(=O)N[C@@H](CCC(=O)O)C(=O)N[C@H](C(=O)N[C@@H](Cc1ccc(O)cc1)C(=O)N1CCC[C@H]1C(=O)N[C@@H](CCCNC(=N)N)C(=O)N[C@H](C(=O)N[C@@H](CCC(=O)O)C(=O)N[C@H](C(=O)NCC(=O)N[C@@H](CO)C(=O)NCC(=O)N[C@H](C(=O)N[C@@H](Cc1ccc(O)cc1)C(N)=O)[C@@H](C)O)[C@@H](C)O)[C@@H](C)O)[C@@H](C)O)[C@@H](C)O)[C@@H](C)O
B5: [N-terminal(C20 diacid-gGlu), des1, 2L, 4G, 9V, 21S, 23Y, 30S, 31G, 32T, 33Y]mimylin (peptide)
peptide: {C20 diacid-γGlu}-LSGLSTAVLGRLSAELHELSTYPRTETGSGTY-NH2
SMILES: CC(C)C[C@H](NC(=O)CC[C@H](NC(=O)CCCCCCCCCCCCCCCCCCC(=O)O)C(=O)O)C(=O)N[C@@H](CO)C(=O)NCC(=O)N[C@@H](CC(C)C)C(=O)N[C@@H](CO)C(=O)N[C@H](C(=O)N[C@@H](C)C(=O)N[C@H](C(=O)N[C@@H](CC(C)C)C(=O)NCC(=O)N[C@@H](CCCNC(=N)N)C(=O)N[C@@H](CC(C)C)C(=O)N[C@@H](CO)C(=O)N[C@@H](C)C(=O)N[C@@H](CCC(=O)O)C(=O)N[C@@H](CC(C)C)C(=O)N[C@@H](Cc1c[nH]cn1)C(=O)N[C@@H](CCC(=O)O)C(=O)N[C@@H](CC(C)C)C(=O)N[C@@H](CO)C(=O)N[C@H](C(=O)N[C@@H](Cc1ccc(O)cc1)C(=O)N1CCC[C@H]1C(=O)N[C@@H](CCCNC(=N)N)C(=O)N[C@H](C(=O)N[C@@H](CCC(=O)O)C(=O)N[C@H](C(=O)NCC(=O)N[C@@H](CO)C(=O)NCC(=O)N[C@H](C(=O)N[C@@H](Cc1ccc(O)cc1)C(N)=O)[C@@H](C)O)[C@@H](C)O)[C@@H](C)O)[C@@H](C)O)C(C)C)[C@@H](C)O
B6: [N-terminal(C20 diacid-gGlu), 2L, 4G, 8L, 9V, 15Q, 21Q, 23Y, 27G, 30S, 31G, 32T, 33Y]mimylin (peptide)
peptide: {C20 diacid-γGlu}-ELSGLSTLVLGRLSQELHELQTYPRTGTGSGTY-NH2
SMILES: CC(C)C[C@H](NC(=O)CNC(=O)[C@H](CO)NC(=O)[C@H](CC(C)C)NC(=O)[C@H](CCC(=O)O)NC(=O)CC[C@H](NC(=O)CCCCCCCCCCCCCCCCCCC(=O)O)C(=O)O)C(=O)N[C@@H](CO)C(=O)N[C@H](C(=O)N[C@@H](CC(C)C)C(=O)N[C@H](C(=O)N[C@@H](CC(C)C)C(=O)NCC(=O)N[C@@H](CCCNC(=N)N)C(=O)N[C@@H](CC(C)C)C(=O)N[C@@H](CO)C(=O)N[C@@H](CCC(N)=O)C(=O)N[C@@H](CCC(=O)O)C(=O)N[C@@H](CC(C)C)C(=O)N[C@@H](Cc1c[nH]cn1)C(=O)N[C@@H](CCC(=O)O)C(=O)N[C@@H](CC(C)C)C(=O)N[C@@H](CCC(N)=O)C(=O)N[C@H](C(=O)N[C@@H](Cc1ccc(O)cc1)C(=O)N1CCC[C@H]1C(=O)N[C@@H](CCCNC(=N)N)C(=O)N[C@H](C(=O)NCC(=O)N[C@H](C(=O)NCC(=O)N[C@@H](CO)C(=O)NCC(=O)N[C@H](C(=O)N[C@@H](Cc1ccc(O)cc1)C(N)=O)[C@@H](C)O)[C@@H](C)O)[C@@H](C)O)[C@@H](C)O)C(C)C)[C@@H](C)O
B7: [N-terminal(C20 diacid-gGlu), des1, 4G, 9V, 15Q, 21Q, 23Y, 30S, 31A, 32T, 33Y]mimylin (peptide)
peptide: {C20 diacid-γGlu}-ASGLSTAVLGRLSQELHELQTYPRTETGSATY-NH2
SMILES: CC(C)C[C@H](NC(=O)CNC(=O)[C@H](CO)NC(=O)[C@H](C)NC(=O)CC[C@H](NC(=O)CCCCCCCCCCCCCCCCCCC(=O)O)C(=O)O)C(=O)N[C@@H](CO)C(=O)N[C@H](C(=O)N[C@@H](C)C(=O)N[C@H](C(=O)N[C@@H](CC(C)C)C(=O)NCC(=O)N[C@@H](CCCNC(=N)N)C(=O)N[C@@H](CC(C)C)C(=O)N[C@@H](CO)C(=O)N[C@@H](CCC(N)=O)C(=O)N[C@@H](CCC(=O)O)C(=O)N[C@@H](CC(C)C)C(=O)N[C@@H](Cc1c[nH]cn1)C(=O)N[C@@H](CCC(=O)O)C(=O)N[C@@H](CC(C)C)C(=O)N[C@@H](CCC(N)=O)C(=O)N[C@H](C(=O)N[C@@H](Cc1ccc(O)cc1)C(=O)N1CCC[C@H]1C(=O)N[C@@H](CCCNC(=N)N)C(=O)N[C@H](C(=O)N[C@@H](CCC(=O)O)C(=O)N[C@H](C(=O)NCC(=O)N[C@@H](CO)C(=O)N[C@@H](C)C(=O)N[C@H](C(=O)N[C@@H](Cc1ccc(O)cc1)C(N)=O)[C@@H](C)O)[C@@H](C)O)[C@@H](C)O)[C@@H](C)O)C(C)C)[C@@H](C)O

Biological target: T1, human amylin receptor (human calcitonin receptor + human RAMP3) (human)
Test: whole-cell competition vs 125I-rat amylin (Assay Va)

Row | IC50 | Binder
1 | 0.222 nM | B1
2 | 0.338 nM | B2
3 | 5.45 nM | B3
4 | 0.431 nM | B4
5 | 11.8 nM | B5
6 | 2.56 nM | B6
7 | 0.079 nM | {C20 diacid-γGlu}-ASGLSTATLGRLSQELHELQTYPRTETGSGTY-NH2 [[N-terminal(C20 diacid-gGlu), des1, 4G, 9T, 15Q, 21Q, 23Y, 30S, 31G, 32T, 33Y]mimylin]
8 | 0.244 nM | B7
